Measurements: the RNAGym collection of RNA variant scans (doi:10.1021/acssynbio.7b00057)

B1: Pistol ribozyme (parent)
chain: GGGUCGUUGUUCCAUAAUCGCGUGGAUAUGGCACGCAAGUUUCUACCGGGCACCGUAAAUGUCCGACUGGAGCCGUUCGGGCGGCUAUAAACAGACCUCAGGCCCGAAGCGUGGCGGCACCUGCCGCCGGUGGUAAAAAAGAUCGGAAGAGCACACGUCU

Variants of: B1
Experiment: aptazyme ON/OFF ratio, guanine; higher = stronger switching; co-transcriptional cleavage with and without guanine

Aptazyme ON/OFF ratio, 0.975:
U7A G9A U10C U11C C13A

Aptazyme ON/OFF ratio, 1.07:
U7A G9C U10A U11A C12U
U7A G9A U10A C12A C13G
U7A G9C U10A U11A C12A C13G
U7A G9A U11C C13A
U7A G9C U10A U11A
U7A G9A U10C U11C C12G C13A
U7A G9C C12A C13A

Aptazyme ON/OFF ratio, 1.16:
U7A G9A U11A C12G C13G
U7A G9A U10G U11G C12G C13U
U7A G9A U11A C12A C13G
U7A G9A U10G U11C C12A C13A

Aptazyme ON/OFF ratio, 1.24:
U7A G9A U11A C12U C13A
U7A G9A U10C U11G C12A C13G

Aptazyme ON/OFF ratio, 1.54:
U7A C12A

Aptazyme ON/OFF ratio, 1.11:
U7A G9A U11A C13G
U7A G9A U10A C12U C13G
U7A G9C U10A C12U C13G
U7A C13G
U7A G9A U10A U11G C13G
U7A G9A U10G U11C C12A C13U

Aptazyme ON/OFF ratio, 1.47:
U7A C13A

Aptazyme ON/OFF ratio, 1.41:
U7A G9A U10G C12U
U7A G9A U10A U11A C12A C13A

Aptazyme ON/OFF ratio, 1.14:
U7A G9C U10A C12G C13G
U7A G9A U10C U11G C12G C13U
U7A G9C U10A C12U C13A
U7A G9C U10A C12A C13A
U7A G9A U10G U11C C12A C13G

Aptazyme ON/OFF ratio, 1.06:
U7A G9C U10A U11A C12A
U7A G9C U10A U11A C12G
U7A G9A U11A C13U
U7A G9A U10C C13G
U7A G9A U10C C13A
U7A G9C C13G
U7A G9A U10G U11A C13U

Aptazyme ON/OFF ratio, 1.58:
U7A C13U

Aptazyme ON/OFF ratio, 1.38:
U7A G9A U11G C13U
U7A G9C U10A

Aptazyme ON/OFF ratio, 1.17:
U7A G9C U10A C12G C13U
U7A G9A U10C U11G C12G C13A
U7A G9A U11A C13A
U7A G9A U10A U11G C12U C13A
U7A G9C U10A U11C C12G C13U
U7A G9A U11C C12U
U7A G9A C12U C13G

Aptazyme ON/OFF ratio, 1.3:
U7A G9A U10C U11G C12G
U7A G9A U10A C12A

Aptazyme ON/OFF ratio, 1.04:
U7A G9A U10C U11G C12A
U7A G9A U10C U11C C12U C13U
U7A G9A U10C U11C C12U C13G
U7A G9C U10A U11A C12G C13A
U7A G9C U10A U11C
U7A G9A U10C U11C C12G C13U
U7A G9A C12U C13A
U7A G9C C12A C13G

Aptazyme ON/OFF ratio, 1.29:
U7A G9A U10C U11G C12U
U7A G9A U10A C12A C13U
U7A G9A U10G U11G C12A C13G
U7A G9A U10A U11G C13A

Aptazyme ON/OFF ratio, 1.2:
U7A G9A U10A U11C C12G C13U
U7A G9A U10G U11G C12G C13A
U7A G9A U10A C12U C13U
U7A G9A U10G U11G C12A C13A
U7A G9A U10C U11A C12A C13A
U7A G9A U10C C12U C13U
U7A G9A U10C U11A C12U C13A

Aptazyme ON/OFF ratio, 1.25:
U7A G9A U10C U11G C13U
U7A G9A U10G U11G C13A
U7A G9A U10G U11G C13G
U7A G9A U10A U11G C12G C13U

Aptazyme ON/OFF ratio, 1.32:
U7A G9A U10A U11G C12G C13A
U7A G9A U10A U11A C12U C13G
U7A G9A U10A U11A C12A C13U

Aptazyme ON/OFF ratio, 1.18:
U7A G9A U10G U11C C12G C13G
U7A G9A U11C C12A
U7A G9A U11C C12G
U7A G9A U10C U11G C12A C13A

Aptazyme ON/OFF ratio, 1.67:
U7A G9A U11G

Aptazyme ON/OFF ratio, 1.48:
U7A C12U

Aptazyme ON/OFF ratio, 1.33:
U7A G9A U10G U11G C12A C13U

Aptazyme ON/OFF ratio, 3.28:
U7A

Aptazyme ON/OFF ratio, 1.01:
U7A G9C U10A U11C C13A

Aptazyme ON/OFF ratio, 1.02:
U7A G9C C13A
U7A G9A U11C
U7A G9A U10C U11C C13U

Aptazyme ON/OFF ratio, 1.28:
U7A G9A U11A C12G C13U
U7A G9A U11G C12A C13U
U7A G9A U11G C12A C13G

Aptazyme ON/OFF ratio, 1.12:
U7A G9A U11G C13G
U7A G9A U10C U11A C13G
U7A G9A U10C C13U
U7A G9C C13U
U7A G9C U10A C12U C13U
U7A G9C U10A U11C C12G C13G
U7A G9A U10C C12U C13G
U7A G9A U10A U11G C13U

Aptazyme ON/OFF ratio, 2.25:
U7A G9A C12A

Aptazyme ON/OFF ratio, 1.03:
U7A G9A U10C U11C C12U C13A
U7A G9A U11C C13U
U7A G9A U10G U11A C13G
U7A G9A U10C U11C C13G

Aptazyme ON/OFF ratio, 1.22:
U7A G9A U10C C12A C13G
U7A G9A U10C U11G C13A
U7A G9A U11A C12U C13G
U7A G9A U10C U11A C12U C13U
U7A G9A U11A C12A C13A

Aptazyme ON/OFF ratio, 1.08:
U7A G9A U10A U11C C12G C13A
U7A G9A U10A U11A C13G
U7A G9A U10G U11C C12G
U7A G9A U10G U11C C12U
U7A G9A U11C C13G
U7A G9C U10A U11C C12G C13A
U7A G9A U10C C12U C13A

Aptazyme ON/OFF ratio, 1.19:
U7A G9A U10C U11G C13G
U7A G9A U11A C12G C13A
U7A G9A U10C U11A C13U
U7A G9A U10A U11A C12U C13A
U7A G9A U10C U11A C12A C13U

Aptazyme ON/OFF ratio, 1.09:
U7A G9C U10A U11A C12A C13U
U7A G9A U10G U11G C12G C13G
U7A G9A U10G U11A C13A
U7A G9A U10G U11G C13U
U7A G9A U10C U11C C12G C13G
U7A G9C U10A C12A C13G

Aptazyme ON/OFF ratio, 1.46:
U7A G9A U11A

Aptazyme ON/OFF ratio, 1.23:
U7A G9A U10C U11A C12U C13G
U7A G9C U10A C12A C13U

Aptazyme ON/OFF ratio, 1.26:
U7A G9A U11G C13A

Aptazyme ON/OFF ratio, 1.39:
U7A G9A U10A U11A C12U C13U

Aptazyme ON/OFF ratio, 2.04:
U7A G9A C12U

Aptazyme ON/OFF ratio, 1.1:
U7A G9A U10A C12A C13A
U7A G9A U10G U11C C12G C13U
U7A G9A U10A C12U C13A
U7A G9C U10A U11A C12G C13U
U7A G9C U10A U11A C12G C13G
U7A G9A U11G C12A C13A
U7A G9C C12A C13U
U7A G9A U10C U11G C12A C13U

Aptazyme ON/OFF ratio, 1.42:
U7A G9A U10A U11C C12G C13G
U7A G9A U10A U11G C12U C13U
U7A G9A U11A C12U C13U

Aptazyme ON/OFF ratio, 1.15:
U7A G9A U10A U11A C13A
U7A G9A U10C U11A C13A
U7A G9A U10A U11G C12U C13G

Aptazyme ON/OFF ratio, 1.21:
U7A G9A U10C C12A C13U
U7A G9A U10A U11A C13U
U7A G9A U10G U11C C12A
U7A G9A U10A C12G
U7A G9A U10A C12U
U7A G9A U10G C12G
U7A G9A C12U C13U

Aptazyme ON/OFF ratio, 1.05:
U7A G9A U10C U11A C12A C13G

Aptazyme ON/OFF ratio, 1.37:
U7A G9A C12A C13U

Aptazyme ON/OFF ratio, 2.38:
U7A G9A C12G

Aptazyme ON/OFF ratio, 1.44:
U7A C12G
U7A G9A U10A U11G C12G C13G
U7A G9A U11A C12A C13U

Aptazyme ON/OFF ratio, 1.27:
U7A G9A U10C U11G C12G C13G
U7A G9A U10G U11C C12G C13A

Aptazyme ON/OFF ratio, 1.13:
U7A G9A U10C C12A C13A
U7A G9C U10A C12G C13A
U7A G9A C12A C13A
U7A G9A C12A C13G
U7A G9C U10A U11A C12A C13A
U7A G9A U10G C12A
U7A G9A U10A U11A C12A C13G
